US6627739
[ ]: non-standard residue; d: D form. Sta = CC(C)C[C@H](N)[C@@H](O)CC(=O)O

What was measured:
[1] = target: T1, β-secretase 46-452 (human, UniProt P56817 46-452); assay: binding to peptide-Sepharose affinity matrix
T1 construct: C-terminally truncated form lacking the transmembrane region
Description: The same fractions run under non-reducing conditions (FIG. 6B) provide evidence for disulfide cross-linked oligomers. When the anion exchange pool fractions 18–21 (see FIG. 6B) were treated with dithiothreitol (DTT) and re-chromatographed on a Mini Q column, then subjected to SDS-PAGE under non-reducing conditions, a single band running at about 70 kilodaltons was observed.
All manipulations were carried out at room temperature. 12.5 ml of 80% slurry of NHS-Sepharose (i.e. 10 ml packed volume; Pharmnacia, Piscataway, N.J.) was poured into a Bio-Rad EconoColumn (BioRad, Richmond, Calif.) and washed with 165 ml of ice-cold 1.0 mM HCl. When the bed was fully drained, the bottom of the column was closed off, and 5.0 ml of 7.0 mg/ml P10-P4'sta(D→V) peptide (dissolved in 0.1 M HEPES, pH 8.0) was added. The column was capped and incubated with rotation for 24 hours. After incubation, the column was allowed to drain, then washed with 8 ml of 1.0 M ethanolamine, pH 8.2. An additional 10 ml of the ethanolamine solution was added, and the column was again capped and incubated overnight with rotation. […]

[2] = target: T2, recombinant full-length human β-secretase (1-501) expressed from pCEK clone 27 / pCFβA2 in 293T or Cos A2 … (human, UniProt P56817 46-501); assay: affinity chromatography on peptide-Sepharose, extracts of transfected 293T and COS A2 cells
T2 construct: From 293T cells the N-terminus was mainly residue 46, with minor forms at 22 and 63; From Cos A2 cells it was 46 and 58; also called p501 β-secretase; full length clone 27
Description: The cell pellet was resuspended by homogenizing for 30 seconds using a handheld homogenizer (0.5 ml/pellet of approximately […] in extraction buffer consisting of 20 mM TRIS buffer, pH 7.5, 2 mM EDTA, 0.2% Triton X-100, plus protease inhibitors: 5 µg/ml E-64, 10 µg/ml pepstatin, 1 mM PMSF), centrifuged as maximum speed in a microfuge (40 minutes at 4 degrees C.). Pellets were suspended in original volume of extraction buffer, then stirred at 1 hour at 4 degrees C. with rotation, and centrifuted again in a microfuge at maximum speed for 40 minutes. The resulting supernatant was saved as the "extract." The extract was then diluted with 20 mM sodium acetate, pH 5.0,2 mM EDTA and 0.2% Triton X-100 (SP buffer A), and 5M NaCl was added to a final concentration of 60 mM NaCl. The pH of the solution was then adjusted to pH 5.0 with glacial acetic acid diluted 1:10 in water. Aliquots were saved ("SP load"). The SP load was passed through a 1 ml SP HiTrap column which was pre-washed with 5 ml SP buffer A, 5 ml SP buffer B (SP buffer A with 1 M NaCl) and 10 ml SP buffer A. An additional 2 ml of 5% SP buffer B was passed through the column to displace any remaining sample from the column. The pH of the SP flow-through was adjusted to pH 4.5 with 10× diluted acetic acid. This flow-through was then applied to a P10-P4'staD→V-Sepharose Affinity column, as described below. […]

T1 sequence (P56817 46-452 limits assumed): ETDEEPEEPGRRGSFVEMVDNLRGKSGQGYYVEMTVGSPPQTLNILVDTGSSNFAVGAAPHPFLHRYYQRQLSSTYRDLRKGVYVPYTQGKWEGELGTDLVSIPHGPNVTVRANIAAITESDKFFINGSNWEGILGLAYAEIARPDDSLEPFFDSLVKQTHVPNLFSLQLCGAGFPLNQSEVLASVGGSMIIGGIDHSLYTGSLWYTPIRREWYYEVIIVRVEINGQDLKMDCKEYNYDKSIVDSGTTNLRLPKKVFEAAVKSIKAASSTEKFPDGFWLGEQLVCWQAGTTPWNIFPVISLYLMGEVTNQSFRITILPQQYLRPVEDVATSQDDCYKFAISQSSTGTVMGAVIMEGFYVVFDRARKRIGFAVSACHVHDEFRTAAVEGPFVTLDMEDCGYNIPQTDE
T2 sequence (P56817 46-501 limits assumed): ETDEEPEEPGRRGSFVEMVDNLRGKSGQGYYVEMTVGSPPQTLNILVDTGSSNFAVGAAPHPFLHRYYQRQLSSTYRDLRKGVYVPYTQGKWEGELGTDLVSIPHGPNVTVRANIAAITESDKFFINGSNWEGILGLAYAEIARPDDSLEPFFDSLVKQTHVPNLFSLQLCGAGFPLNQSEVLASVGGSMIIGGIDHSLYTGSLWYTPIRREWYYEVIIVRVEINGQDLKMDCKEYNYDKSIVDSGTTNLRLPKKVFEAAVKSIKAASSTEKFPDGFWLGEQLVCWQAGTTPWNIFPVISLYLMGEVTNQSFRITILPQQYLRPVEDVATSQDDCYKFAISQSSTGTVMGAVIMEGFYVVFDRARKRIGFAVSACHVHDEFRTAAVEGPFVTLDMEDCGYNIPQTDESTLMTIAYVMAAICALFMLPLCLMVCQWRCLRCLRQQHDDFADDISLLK

B1: P10-P4′staD→V (NH2-KTEEISEVN[sta]VAEF-CO2H) (peptide)
peptide: H-KTEEISEVN[Sta]VAEF-OH
notes: also called P10-P4′(statine)D→V
binding result [1]: binds
binding result [2]: binds
